The values below are quoted from earlier work in article PMC2734106.

Some results are limits rather than exact numbers.

The target in one series is ubiquitin (Homo sapiens) (UniProt P0CG47).
The target in series [1] is K48-linked tetraubiquitin (Homo sapiens) (UniProt P0CG47).

Chain of USP5 (P45974 2-858): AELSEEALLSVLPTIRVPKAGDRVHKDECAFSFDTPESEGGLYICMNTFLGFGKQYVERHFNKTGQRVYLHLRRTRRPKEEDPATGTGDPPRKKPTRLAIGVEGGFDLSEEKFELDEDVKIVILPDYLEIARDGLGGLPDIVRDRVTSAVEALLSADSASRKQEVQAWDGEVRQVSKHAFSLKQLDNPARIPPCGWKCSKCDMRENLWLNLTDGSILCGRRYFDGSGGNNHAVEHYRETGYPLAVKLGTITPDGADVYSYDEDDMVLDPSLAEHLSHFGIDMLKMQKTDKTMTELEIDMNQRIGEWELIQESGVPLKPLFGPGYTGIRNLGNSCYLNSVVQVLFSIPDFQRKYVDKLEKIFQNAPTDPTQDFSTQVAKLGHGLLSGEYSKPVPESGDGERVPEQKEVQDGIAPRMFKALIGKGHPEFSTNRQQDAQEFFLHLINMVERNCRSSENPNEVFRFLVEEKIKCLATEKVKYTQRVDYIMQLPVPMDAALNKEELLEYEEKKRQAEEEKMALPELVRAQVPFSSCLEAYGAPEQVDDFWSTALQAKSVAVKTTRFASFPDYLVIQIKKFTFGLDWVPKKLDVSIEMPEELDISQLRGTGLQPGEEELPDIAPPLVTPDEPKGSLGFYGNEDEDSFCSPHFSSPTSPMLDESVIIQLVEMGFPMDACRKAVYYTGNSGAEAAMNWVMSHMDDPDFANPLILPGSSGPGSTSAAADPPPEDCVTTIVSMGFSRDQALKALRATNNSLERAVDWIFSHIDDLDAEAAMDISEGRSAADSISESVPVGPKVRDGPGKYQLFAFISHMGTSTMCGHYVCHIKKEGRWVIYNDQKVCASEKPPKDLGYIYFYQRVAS

By Kd is commonly meant a measure of binding affinity in units of concentration. On to USP5 (from UniProt P45974), for which the results for the Kd (in the series with ubiquitin (Homo sapiens); in series [1]) were 0.05 µM and less than 0.001 µM, respectively.
